PMC10692205, “Pyroptosis inhibiting nanobodies block Gasdermin D pore formation” (Nature Communications, 2023)

T1: chemically biotinylated full length human Gasdermin D (GSDMD) (human, UniProt P57764 1-484, chemically biotinylated (ChromaLink Biotin), approximately 2 biotins per molecule; sites not stated)
T1 chain: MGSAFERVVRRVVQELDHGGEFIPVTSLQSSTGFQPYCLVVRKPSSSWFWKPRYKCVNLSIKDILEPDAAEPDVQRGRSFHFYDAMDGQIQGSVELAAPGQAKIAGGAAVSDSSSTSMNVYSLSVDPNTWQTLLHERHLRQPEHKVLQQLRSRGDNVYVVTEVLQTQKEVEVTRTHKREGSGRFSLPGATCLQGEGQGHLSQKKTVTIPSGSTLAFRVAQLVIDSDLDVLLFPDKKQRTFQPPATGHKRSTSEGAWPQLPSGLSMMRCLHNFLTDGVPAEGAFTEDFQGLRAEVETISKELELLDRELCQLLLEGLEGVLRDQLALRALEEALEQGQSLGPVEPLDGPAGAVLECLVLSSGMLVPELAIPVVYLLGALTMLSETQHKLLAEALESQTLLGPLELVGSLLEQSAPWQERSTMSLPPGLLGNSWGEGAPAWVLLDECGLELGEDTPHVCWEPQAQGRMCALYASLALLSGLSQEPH


How the values were obtained:
[1] = target: T2, human wild-type, full length Gasdermin D (GSDMD 1-484), chemically biotinylated (Homo sapiens (Human)., UniProt P57764, chemically biotinylated (ChromaLink Biotin), approximately 2 biotins per molecule); assay: SPR; Biacore 8K; chemically biotinylated full length GSDMD captured on Series S Sensor Chip CAP; nanobodies injected as analytes, multi-cycle kinetics (VHH-1, -2, -3, -5: 0.5-32 nM; VHH-4, -6: 64-4096 nM); 25 °C; 20 mM HEPES pH 8.0, 200 mM NaCl, 5 mM DTT, 0.05% Tween20; flow 30 µl/min; association 120 s, dissociation 300 s; 1:1 binding model; settings: both partners purified
T2 construct: human Gasdermin D (GSDMD), wild type, full length, residues 1-484; also called human GSDMD wt, f.l; hGSDMD; source: E. coli Rosetta (DE3), purified (Ni-NTA, SUMO cleavage by ULP1, second Ni-NTA, SEC S200); chemically biotinylated (ChromaLink Biotin Labeling kit); not shown: His6-SUMO, N-terminal, cleaved

[2] = target: T3, chemically biotinylated full length human Gasdermin D (GSDMD) (Homo sapiens (Human)., UniProt P57764, chemically biotinylated (ChromaLink Biotin), approximately 2 biotins per molecule; sites not stated); assay: SPR; chemically biotinylated GSDMD captured on a Series S Sensor Chip CAP (biotin capture kit); nanobodies injected as analytes, multi-cycle kinetics, 120 s association, 300 s dissociation, 1:1 binding model; 25 °C; 20 mM HEPES pH 8.0, 200 mM NaCl, 5 mM DTT, 0.05% Tween20; settings: both partners purified
T3 construct: human Gasdermin D, wild-type, full length, residues 1-484; also called chemically biotinylated GSDMD; not shown: His6, N-terminal, cleaved; SUMO, N-terminal, cleaved

[3] = target: T1, chemically biotinylated full length …; assay: SPR
[4] = target: T4, human wild-type, full length Gasdermin D (GSDMD) 1-484 (Homo sapiens (Human)., UniProt P57764); assay: nanoDSF thermal shift; nanobodies titrated to GSDMD (5 µM) in increasing concentrations; heated 20 to 90 °C at 1.5 °C/min; fluorescence at 330 and 350 nm; settings: both partners purified
T4 construct: human Gasdermin D, wild-type, full length, residues 1-484; also called recombinant GSDMD; full length GSDMD; source: E. coli Rosetta (DE3), purified (Ni-NTA, ULP1 cleavage, second Ni-NTA, SEC); not shown: His6, N-terminal, cleaved; SUMO, N-terminal, cleaved

[5] = target: human wild-type, full length Gasdermin D (GSDMD 1-484), chemically biotinylated (human) (UniProt P57764); assay: SPR; Biacore 8K; chemically biotinylated full length GSDMD captured on Series S Sensor Chip CAP; nanobodies injected as analytes, multi-cycle kinetics (VHH-1, -2, -3, -5: 0.5-32 nM; VHH-4, -6: 64-4096 nM); 25 °C; 20 mM HEPES pH 8.0, 200 mM NaCl, 5 mM DTT, 0.05% Tween20; flow 30 µl/min; association 120 s, dissociation 300 s; 1:1 binding model
[6] = target: T4, human wild-type, full length Gasdermin …; assay: cell-based or functional assay
[7] = target: T5, GSDMD_(Δ184-194/Δ247-272) (human, UniProt P57764, Δ184-194 | Δ247-272); assay: SEC-MALS; GSDMD_(Δ184-194/Δ247-272) mixed with VHH GSDMD-2, VHH GSDMD-6 or both at equimolar concentrations (189 µM); Superose 6 10/300 GL in GSDMD-SEC buffer; settings: both partners purified
T5 construct: human Gasdermin D 1-484 with residues 184-194 (in the NTD) and 247-272 (linker between the domains) deleted; also called GSDMD crystallization construct; source: E. coli Rosetta (DE3), purified (Ni-NTA, ULP1 cleavage, second Ni-NTA, SEC); not shown: His6, N-terminal, cleaved; SUMO, N-terminal, cleaved

Binder	Kd [1] [nM]	koff [1] [s⁻¹]	kon [1] [M⁻¹ s⁻¹]	Kd [2] [nM]	other results
VHH_(GSDMD-3) (VHH, also called VHH-3; source: E. coli WK6, periplasmic expression (pHEN6), purified (Ni-NTA, SEC S75)) VHH: QVQLVETGGGLVQPGGSLRLSCAASGFTLDIYNMGWFRQAPGKEREGVSCISSRYGTSTYYADSVKGRFTISRDNAKNTVYLQMNNLKPEDTAVYYCATVSWRFTTNQDVCLTPSVSGYWGQGTQVTVSS	0.551	0.00154	2.8e+06	–	–
VHH_(GSDMD-3) (VHH, source: E. coli WK6, periplasmic expression (pHEN6), purified (Ni-NTA, gel filtration)) VHH: QVQLVETGGGLVQPGGSLRLSCAASGFTLDIYNMGWFRQAPGKEREGVSCISSRYGTSTYYADSVKGRFTISRDNAKNTVYLQMNNLKPEDTAVYYCATVSWRFTTNQDVCLTPSVSGYWGQGTQVTVSS	–	–	–	0.55	–
VHH_(GSDMD-4) (VHH, source: E. coli WK6, periplasmic expression (pHEN6), purified (Ni-NTA, gel filtration)) VHH: QVQLVESGGGLVQPGGSLRLSCAASGFTLDRHAIAWFRQAPGLEREGVVCTSSSGAITNTADSVKGRFTISRDDAKNTVYLQMNSLKPEDTAIYYCAVRELWTVQPICEPRPRAYAYWGQGTQVTVSS	–	–	–	–	Kd [3]: 559 nM; binding result [4]: binds; koff [5]: 0.00161 s⁻¹; kon [5]: 2890 M⁻¹ s⁻¹
VHH_(GSDMD-2) (VHH, also called VHH-2; source: E. coli WK6, periplasmic expression (pHEN6), purified (Ni-NTA, SEC S75)) VHH: QVQLVESGGGLVQPGGSLRLSCVDSRSWINVYGANWYRQAPGKERELVAALTSGGTTNYADSVKGRFTISRDNAKNTVYLQMRDLKPEDTAVYYCNLERYTGSSVYPWGQGTQVTVSS	0.637	0.000951	1.49e+06	–	–
VHH_(GSDMD-2) (VHH, CDR1, -2, -3 of 10, 9 and 12 residues; disulfide C22-C95; also called VHH_(GSDMD-2)-LPETG-His; source: E. coli WK6, periplasmic expression (pHEN6), purified (Ni-NTA, gel filtration); not shown: LPETG, C-terminal, kept; His tag, C-terminal, kept) VHH: QVQLVESGGGLVQPGGSLRLSCVDSRSWINVYGANWYRQAPGKERELVAALTSGGTTNYADSVKGRFTISRDNAKNTVYLQMRDLKPEDTAVYYCNLERYTGSSVYPWGQGTQVTVSS	–	–	–	0.64	IC50 of calcein release through GSDMD pores in the liposome leakage assay (nanobody 10 nM to 10 µM, 0.5 µM full length GSDMD, caspase-4, 180 min); what is blocked: formation of functional GSDMD pores [6]: 650 nM; stoichiometry N [7]: 1
VHH_(GSDMD-5) (VHH, also called VHH-5; source: E. coli WK6, periplasmic expression (pHEN6), purified (Ni-NTA, SEC S75)) VHH: QVQLVETGGGLVQPGGSLRLSCAASGFVFSINPMNWYRQAPGKERELVAYISMRGSTTNYADSVKGRFIISRDNAKNTLYLQMNSLKPEDTAVYYCNAPSRSVWGQGTQVTVSS	0.494	0.00149	3.02e+06	–	–
VHH_(GSDMD-5) (VHH, source: E. coli WK6, periplasmic expression (pHEN6), purified (Ni-NTA, gel filtration)) VHH: QVQLVETGGGLVQPGGSLRLSCAASGFVFSINPMNWYRQAPGKERELVAYISMRGSTTNYADSVKGRFIISRDNAKNTLYLQMNSLKPEDTAVYYCNAPSRSVWGQGTQVTVSS	–	–	–	0.49	–
VHH_(GSDMD-6) (VHH, also called VHH-6; source: E. coli WK6, periplasmic expression (pHEN6), purified (Ni-NTA, SEC S75)) VHH: QVQLVETGGGLVQPGGSLRLSCTASGFIFSANQMNWVRQAPGKGLEWLSGISTRGDTTSYADSVKGRFTISRDNAKNTLYLQMNSLQPDDTAVYFCARVCIRGPEPKLRCDDWGQGTQVTVSS	143	0.0201	141000	–	–
VHH_(GSDMD-6) (VHH, CDR3 of 15 residues with an additional disulfide C100-C110; also called VHH_(GSDMD-6)-HA-His; source: E. coli WK6, periplasmic expression (pHEN6), purified (Ni-NTA, gel filtration); not shown: HA, C-terminal, kept; His tag, C-terminal, kept) VHH: QVQLVETGGGLVQPGGSLRLSCTASGFIFSANQMNWVRQAPGKGLEWLSGISTRGDTTSYADSVKGRFTISRDNAKNTLYLQMNSLQPDDTAVYFCARVCIRGPEPKLRCDDWGQGTQVTVSS	–	–	–	–	IC50 of calcein release through GSDMD pores in the liposome leakage assay (nanobody 10 nM to 10 µM, 0.5 µM full length GSDMD, caspase-4, 180 min); what is blocked: formation of functional GSDMD pores [6]: 1300 nM; stoichiometry N [7]: 1
VHH_(GSDMD-1) (VHH, also called VHH-1; source: E. coli WK6, periplasmic expression (pHEN6), purified (Ni-NTA, SEC S75)) VHH: QVQLVESGGALVQPGGSLRLSCSASGFTFSKYLMSWYRQAPGKERELVATITTAGGNTNYADSVKGRFTISRDNAKNTVYLQMNSLKPEDTAVYYCKASGGTIRTVNETYWGQGTQVTVSS	0.305	0.00198	6.48e+06	–	–
VHH_(GSDMD-1) (VHH, raised by immunization of an alpaca with full-length recombinant human GSDMD; also called VHH_(GSDMD-1)-LPETG-His; source: E. coli WK6, periplasmic expression (pHEN6), purified (Ni-NTA, gel filtration); not shown: LPETG, C-terminal, kept; His tag, C-terminal, kept) VHH: QVQLVESGGALVQPGGSLRLSCSASGFTFSKYLMSWYRQAPGKERELVATITTAGGNTNYADSVKGRFTISRDNAKNTVYLQMNSLKPEDTAVYYCKASGGTIRTVNETYWGQGTQVTVSS	–	–	–	0.31	IC50 of calcein release through GSDMD pores in the liposome leakage assay (nanobody 10 nM to 10 µM, 0.5 µM full length GSDMD, caspase-4, 180 min); what is blocked: formation of functional GSDMD pores [6]: 220 nM
